These results are taken from publication PMC10786891, “Massively parallel profiling of RNA-targeting CRISPR-Cas13d”.

T1: EsCas13d, nuclease-dead (Eubacterium siraeum, UniProt B0MS50, R295A;H300A;R849A;H854A)
T1 sequence: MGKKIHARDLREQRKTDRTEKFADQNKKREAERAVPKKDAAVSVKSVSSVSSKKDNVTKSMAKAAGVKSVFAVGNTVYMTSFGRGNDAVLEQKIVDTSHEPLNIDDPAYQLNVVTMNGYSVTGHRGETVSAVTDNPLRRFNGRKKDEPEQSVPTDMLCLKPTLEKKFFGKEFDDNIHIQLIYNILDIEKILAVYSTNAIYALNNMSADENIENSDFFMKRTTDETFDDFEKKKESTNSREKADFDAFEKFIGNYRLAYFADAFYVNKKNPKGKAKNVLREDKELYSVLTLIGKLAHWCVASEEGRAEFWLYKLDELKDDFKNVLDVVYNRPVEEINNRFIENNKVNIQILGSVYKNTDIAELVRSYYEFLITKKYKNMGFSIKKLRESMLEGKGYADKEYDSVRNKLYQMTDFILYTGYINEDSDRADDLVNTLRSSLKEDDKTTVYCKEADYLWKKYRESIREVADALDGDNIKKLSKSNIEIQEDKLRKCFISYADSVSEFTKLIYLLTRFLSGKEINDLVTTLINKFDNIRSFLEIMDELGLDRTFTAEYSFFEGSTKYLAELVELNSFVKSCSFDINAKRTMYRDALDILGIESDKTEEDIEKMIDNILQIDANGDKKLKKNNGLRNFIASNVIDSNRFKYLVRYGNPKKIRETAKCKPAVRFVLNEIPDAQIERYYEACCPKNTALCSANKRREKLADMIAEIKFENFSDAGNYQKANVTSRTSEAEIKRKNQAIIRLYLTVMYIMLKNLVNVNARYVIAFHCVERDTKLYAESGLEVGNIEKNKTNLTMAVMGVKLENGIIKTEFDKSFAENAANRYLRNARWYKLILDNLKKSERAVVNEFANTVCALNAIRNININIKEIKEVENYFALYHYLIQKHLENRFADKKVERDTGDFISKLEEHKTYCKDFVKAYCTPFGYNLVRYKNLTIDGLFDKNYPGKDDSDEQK

B1: target 1 insA 3' of 19,insG 3' of 14 (mixed)
RNA 1: CACCCGUGCAAAAAUGCAGGGGUCUAAAACUGAGCGGAUAACCUCUCUAUGG
RNA 2: GGGAAUGGAUCCACAUCUACGAAUUCGUACCAUAAGAGAGGGUUAUCCGCUCACCGAGAUCGGAAGAGCACACGU
B2: target 1 insU 3' of 15,insA 3' of 5 (mixed)
RNA 1: CACCCGUGCAAAAAUGCAGGGGUCUAAAACUGAGCGGAUAACCUCUCUAUGG
RNA 2: GGGAAUGGAUCCACAUCUACGAAUUCGUACCAUAGAGUAGGUUAUCCGACUCACCGAGAUCGGAAGAGCACACGU
B3: target 1 insG 3' of 19,insG 3' of 8 (mixed)
RNA 1: CACCCGUGCAAAAAUGCAGGGGUCUAAAACUGAGCGGAUAACCUCUCUAUGG
RNA 2: GGGAAUGGAUCCACAUCUACGAAUUCGUACCAUGAGAGAGGUUAUGCCGCUCACCGAGAUCGGAAGAGCACACGU
B4: target 1 insU 3' of 22,insU 3' of 2 (mixed)
RNA 1: CACCCGUGCAAAAAUGCAGGGGUCUAAAACUGAGCGGAUAACCUCUCUAUGG
RNA 2: GGGAAUGGAUCCACAUCUACGAAUUCGUACUCAUAGAGAGGUUAUCCGCUCUACCGAGAUCGGAAGAGCACACGU
B5: target 1 del7,del20 (mixed)
RNA 1: CACCCGUGCAAAAAUGCAGGGGUCUAAAACUGAGCGGAUAACCUCUCUAUGG
RNA 2: GGGAAUGGAUCCACAUCUACGAAUUCGUACCUAGAGAGGUUAUCGCUCACCGAGAUCGGAAGAGCACACGU
B6: target 1 C2G,U10A (mixed)
RNA 1: CACCCGUGCAAAAAUGCAGGGGUCUAAAACUGAGCGGAUAACCUCUCUAUGG
RNA 2: GGGAAUGGAUCCACAUCUACGAAUUCGUACCAUAGAGAGGUAAUCCGCUGACCGAGAUCGGAAGAGCACACGU
B7: target 1 U3G,C21U (mixed)
RNA 1: CACCCGUGCAAAAAUGCAGGGGUCUAAAACUGAGCGGAUAACCUCUCUAUGG
RNA 2: GGGAAUGGAUCCACAUCUACGAAUUCGUACUAUAGAGAGGUUAUCCGCGCACCGAGAUCGGAAGAGCACACGU
B8: target 1 insA 3' of 10,insU 3' of 4 (mixed)
RNA 1: CACCCGUGCAAAAAUGCAGGGGUCUAAAACUGAGCGGAUAACCUCUCUAUGG
RNA 2: GGGAAUGGAUCCACAUCUACGAAUUCGUACCAUAGAGAGGUUAAUCCGCUUCACCGAGAUCGGAAGAGCACACGU
B9: target 1 insC 3' of 10,insU 3' of 7 (mixed)
RNA 1: CACCCGUGCAAAAAUGCAGGGGUCUAAAACUGAGCGGAUAACCUCUCUAUGG
RNA 2: GGGAAUGGAUCCACAUCUACGAAUUCGUACCAUAGAGAGGUUCAUCUCGCUCACCGAGAUCGGAAGAGCACACGU
B10: target 1 U8A,G17A (mixed)
RNA 1: CACCCGUGCAAAAAUGCAGGGGUCUAAAACUGAGCGGAUAACCUCUCUAUGG
RNA 2: GGGAAUGGAUCCACAUCUACGAAUUCGUACCAUAAAGAGGUUAACCGCUCACCGAGAUCGGAAGAGCACACGU
B11: target 1 G12U,A16U (mixed)
RNA 1: CACCCGUGCAAAAAUGCAGGGGUCUAAAACUGAGCGGAUAACCUCUCUAUGG
RNA 2: GGGAAUGGAUCCACAUCUACGAAUUCGUACCAUAGUGAGUUUAUCCGCUCACCGAGAUCGGAAGAGCACACGU
B12: target 1 U8G,U19G (mixed)
RNA 1: CACCCGUGCAAAAAUGCAGGGGUCUAAAACUGAGCGGAUAACCUCUCUAUGG
RNA 2: GGGAAUGGAUCCACAUCUACGAAUUCGUACCAGAGAGAGGUUAGCCGCUCACCGAGAUCGGAAGAGCACACGU
B13: target 1 insA 3' of 11,insC 3' of 10 (mixed)
RNA 1: CACCCGUGCAAAAAUGCAGGGGUCUAAAACUGAGCGGAUAACCUCUCUAUGG
RNA 2: GGGAAUGGAUCCACAUCUACGAAUUCGUACCAUAGAGAGGUAUCAUCCGCUCACCGAGAUCGGAAGAGCACACGU
B14: target 1 A1U,U3A (mixed)
RNA 1: CACCCGUGCAAAAAUGCAGGGGUCUAAAACUGAGCGGAUAACCUCUCUAUGG
RNA 2: GGGAAUGGAUCCACAUCUACGAAUUCGUACCAUAGAGAGGUUAUCCGCACUCCGAGAUCGGAAGAGCACACGU
B15: target 1 del8,del15 (mixed)
RNA 1: CACCCGUGCAAAAAUGCAGGGGUCUAAAACUGAGCGGAUAACCUCUCUAUGG
RNA 2: GGGAAUGGAUCCACAUCUACGAAUUCGUACCAUAGAAGGUUACCGCUCACCGAGAUCGGAAGAGCACACGU
B16: target 1 C6G,U11A (mixed)
RNA 1: CACCCGUGCAAAAAUGCAGGGGUCUAAAACUGAGCGGAUAACCUCUCUAUGG
RNA 2: GGGAAUGGAUCCACAUCUACGAAUUCGUACCAUAGAGAGGAUAUCGGCUCACCGAGAUCGGAAGAGCACACGU
B17: target 1 C6G,A9G (mixed)
RNA 1: CACCCGUGCAAAAAUGCAGGGGUCUAAAACUGAGCGGAUAACCUCUCUAUGG
RNA 2: GGGAAUGGAUCCACAUCUACGAAUUCGUACCAUAGAGAGGUUGUCGGCUCACCGAGAUCGGAAGAGCACACGU
B18: target 1 insU 3' of 4,insG 3' of 4 (mixed)
RNA 1: CACCCGUGCAAAAAUGCAGGGGUCUAAAACUGAGCGGAUAACCUCUCUAUGG
RNA 2: GGGAAUGGAUCCACAUCUACGAAUUCGUACCAUAGAGAGGUUAUCCGCUGUCACCGAGAUCGGAAGAGCACACGU
B19: target 1 C7A,C22A (mixed)
RNA 1: CACCCGUGCAAAAAUGCAGGGGUCUAAAACUGAGCGGAUAACCUCUCUAUGG
RNA 2: GGGAAUGGAUCCACAUCUACGAAUUCGUAACAUAGAGAGGUUAUACGCUCACCGAGAUCGGAAGAGCACACGU
B20: target 1 insU 3' of 22,insC 3' of 13 (mixed)
RNA 1: CACCCGUGCAAAAAUGCAGGGGUCUAAAACUGAGCGGAUAACCUCUCUAUGG
RNA 2: GGGAAUGGAUCCACAUCUACGAAUUCGUACUCAUAGAGAGCGUUAUCCGCUCACCGAGAUCGGAAGAGCACACGU
B21: target 1 insA 3' of 21,insG 3' of 10 (mixed)
RNA 1: CACCCGUGCAAAAAUGCAGGGGUCUAAAACUGAGCGGAUAACCUCUCUAUGG
RNA 2: GGGAAUGGAUCCACAUCUACGAAUUCGUACCAAUAGAGAGGUUGAUCCGCUCACCGAGAUCGGAAGAGCACACGU
B22: target 1 del13,del16 (mixed)
RNA 1: CACCCGUGCAAAAAUGCAGGGGUCUAAAACUGAGCGGAUAACCUCUCUAUGG
RNA 2: GGGAAUGGAUCCACAUCUACGAAUUCGUACCAUAGGAGUUAUCCGCUCACCGAGAUCGGAAGAGCACACGU
B23: target 1 A9U,A20C (mixed)
RNA 1: CACCCGUGCAAAAAUGCAGGGGUCUAAAACUGAGCGGAUAACCUCUCUAUGG
RNA 2: GGGAAUGGAUCCACAUCUACGAAUUCGUACCCUAGAGAGGUUUUCCGCUCACCGAGAUCGGAAGAGCACACGU
B24: target 1 U3G,U11A (mixed)
RNA 1: CACCCGUGCAAAAAUGCAGGGGUCUAAAACUGAGCGGAUAACCUCUCUAUGG
RNA 2: GGGAAUGGAUCCACAUCUACGAAUUCGUACCAUAGAGAGGAUAUCCGCGCACCGAGAUCGGAAGAGCACACGU
B25: target 1 insG 3' of 22,insG 3' of 14 (mixed)
RNA 1: CACCCGUGCAAAAAUGCAGGGGUCUAAAACUGAGCGGAUAACCUCUCUAUGG
RNA 2: GGGAAUGGAUCCACAUCUACGAAUUCGUACGCAUAGAGAGGGUUAUCCGCUCACCGAGAUCGGAAGAGCACACGU
B26: target 1 insU 3' of 15,insG 3' of 8 (mixed)
RNA 1: CACCCGUGCAAAAAUGCAGGGGUCUAAAACUGAGCGGAUAACCUCUCUAUGG
RNA 2: GGGAAUGGAUCCACAUCUACGAAUUCGUACCAUAGAGUAGGUUAUGCCGCUCACCGAGAUCGGAAGAGCACACGU
B27: target 1 insG 3' of 21,insG 3' of 2 (mixed)
RNA 1: CACCCGUGCAAAAAUGCAGGGGUCUAAAACUGAGCGGAUAACCUCUCUAUGG
RNA 2: GGGAAUGGAUCCACAUCUACGAAUUCGUACCGAUAGAGAGGUUAUCCGCUCGACCGAGAUCGGAAGAGCACACGU

A word on the Kd: it is the free concentration of one partner at which half of the binding sites on the other are occupied at equilibrium, for simple one-to-one binding. High values mean a looser complex, low ones a tighter complex.

The target in this series is T1, EsCas13d, nuclease-dead. Nature of the series: crRNA (strand 1, pre-loaded); Mg2+; 40 mM Tris-HCl pH 7.5, 150 mM NaCl, 6 mM MgCl2, 1 mM DTT, 0.1% Tween-20, 0.2 mg/ml BSA; 25 C; 10 min per concentration, then washed. The note with it: tags: His6-TwinStrep-SUMO cleaved; N-terminal SNAP kept (SNAP-Surface 488); label: 3' end held by stalled T7 RNA polymerase.
In turn, B1 displayed a dissociation constant (Kd) of 28.6 ± 1.5 nM.
To B2 belongs 21.7 ± 2.1 nM; to B3, 58 ± 6 nM.
To B4 belongs 35.9 ± 2.9 nM; to B5, 39 ± 4 nM; to B6, 12.7 ± 1.3 nM.
As for B7, the figure is 11 ± 1.2 nM.
In turn, B8 had a Kd of 9.3 ± 0.6 nM.
In turn, B9 returned an equilibrium dissociation constant (Kd) of 19.2 ± 1.3 nM.
B10 registered a dissociation constant (Kd) of 92 ± 17 nM. Against the preceding molecule, the Kd is about 4.8-fold higher.
As for B11, the figure is 79 ± 18 nM; as for B12, 79 ± 15 nM; as for B13, 14.6 ± 0.7 nM.
As for B14, the figure is 7.2 ± 0.6 nM.
As for B15, the figure is 37.8 ± 3 nM; as for B16, 25.4 ± 0.9 nM; as for B17, 10.6 ± 0.9 nM.
B18 had a Kd of 8.9 ± 0.8 nM.
To B19 belongs 12.1 ± 0.5 nM.
As for B20, the figure is 88 ± 32 nM.
Molecule B21 gave a Kd of 59 ± 24 nM.
As for B22, the figure is 94 ± 28 nM; as for B23, roughly 53 nM.
In turn, B24 yielded a Kd of 14.2 ± 1.3 nM.
In turn, B25 yielded an equilibrium dissociation constant (Kd) of 28.6 ± 3.5 nM.
As for B26, the figure is 18.3 ± 1.7 nM; as for B27, 61 ± 13 nM.
